Legend:
[1] = target: T1, LysG(Mt) (Mycobacterium tuberculosis) (UniProt P9WMF5); assay: EMSA
T1 sequence: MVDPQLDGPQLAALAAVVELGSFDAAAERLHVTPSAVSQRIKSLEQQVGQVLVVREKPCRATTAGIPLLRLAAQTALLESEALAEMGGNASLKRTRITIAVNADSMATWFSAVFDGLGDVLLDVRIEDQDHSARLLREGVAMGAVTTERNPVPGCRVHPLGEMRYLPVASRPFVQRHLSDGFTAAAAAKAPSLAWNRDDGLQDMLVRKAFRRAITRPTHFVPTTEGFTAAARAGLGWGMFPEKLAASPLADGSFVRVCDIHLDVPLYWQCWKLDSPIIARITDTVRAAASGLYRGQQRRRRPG

[2] = target: T2, LysG(Mt) (Mycobacterium tuberculosis, UniProt P9WMF5 1-303); assay: EMSA; 200 pmole LysG, 10 fmole DNA; settings: protein: recombinant, tags: His6 (pQE30-LysG(Mt)x6His), chain copies: 4, blunt
T2 sequence: T1 sequence

## CGCTGCGGTCATTGTGTTCCTCTTAGTCGTTCCGAAAGTTGTTCCAACAACTCGGCTTCGGTCAGTTCGTGGTAGGAGTCGGTGGCTTGCTGGGTTGCGACTGCGGTTGCCCCAATTTCGAGGAGCTCAGGC (double strand) [oligonucleotide VII (ppsC upstream)]
[1]
  binding: no binding

## TTCAGACCGGCACGTTTCAGAGCGGTGGGGATGTCCCGACGTGCGATCCGACAGGGGTTCGCAGGGTCCGCAAAAAACATAGTGAACGCCAGAAAGCCGAATGGGAGTACAAGGCGATGCCGGT (double strand) [oligonucleotide V (fadD26 upstream)]
[1]
  binding: no binding

B1: oligonucleotide III (dsDNA)
DNA 1: AAATGAAGAATTATTAGCTATACTGACCCATACAAACTGCCTAGTGTCGATTGC
DNA 2: GCAATCGACACTAGGCAGTTTGTATGGGTCAGTATAGCTAATAATTCTTCATTT
[2]; label: 5'-biotin on reverse strand (836)
  binding result: no binding

B2: oligonucleotide II (dsDNA)
DNA 1: CTCAGGTGTAGACCATCTGCGGAGCGTCGCACTGCACATTAATAATGCTAATGT
DNA 2: ACATTAGCATTATTAATGTGCAGTGCGACGCTCCGCAGATGGTCTACACCTGAG
[2]; label: 5'-biotin on reverse strand (834)
  binding result: no binding

B3: oligonucleotide IV (dsDNA)
DNA 1: CGCACTGCACATTAATAATGCTAATGTAAATGAAGAATTATTAGCTATACTGAC
DNA 2: GTCAGTATAGCTAATAATTCTTCATTTACATTAGCATTATTAATGTGCAGTGCG
[2]; label: 5'-biotin on reverse strand (838)
  binding result: binds

From paper PMC5648196, “The transcriptional regulator LysG (Rv1985c) of Mycobacterium tuberculosis activates lysE (Rv1986) in a lysine-dependent manner”
